Where no end group is shown, it is not given here.
Target: receptors that recognize the sequence GRGDSPG
Test: cell-based or functional assay

- adhesion and spreading of human foreskin fibroblasts on conjugate addition gels, 6 hours post-seeding: 50%
Binder: GC(PEG acrylate)GYGRGDSPG […]

Source: patent publication EP1292709B1
